Assays:
HlgC = target: T1, HlgC (S. aureus, UniProt Q07227 30-315); experiment: ELISA on purified, recombinant HlgC
T1 construct: also called gamma hemolysin C; HlgC subunit
T1 sequence: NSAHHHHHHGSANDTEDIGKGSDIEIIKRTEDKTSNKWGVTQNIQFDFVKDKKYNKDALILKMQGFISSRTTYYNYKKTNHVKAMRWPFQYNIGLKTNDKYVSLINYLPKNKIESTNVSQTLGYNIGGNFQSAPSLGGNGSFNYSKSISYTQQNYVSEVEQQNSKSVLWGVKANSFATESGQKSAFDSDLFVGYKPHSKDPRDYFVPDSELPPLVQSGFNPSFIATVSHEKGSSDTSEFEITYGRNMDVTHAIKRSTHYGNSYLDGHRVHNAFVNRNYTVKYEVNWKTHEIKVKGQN

LukS-PV = target: T2, LukS-PV (S. aureus); experiment: ELISA on purified, recombinant LukS-PV
T2 construct: also called Panton-Valentine leukocidin S; LukS-PV subunit of the PVL leukotoxin
T2 chain: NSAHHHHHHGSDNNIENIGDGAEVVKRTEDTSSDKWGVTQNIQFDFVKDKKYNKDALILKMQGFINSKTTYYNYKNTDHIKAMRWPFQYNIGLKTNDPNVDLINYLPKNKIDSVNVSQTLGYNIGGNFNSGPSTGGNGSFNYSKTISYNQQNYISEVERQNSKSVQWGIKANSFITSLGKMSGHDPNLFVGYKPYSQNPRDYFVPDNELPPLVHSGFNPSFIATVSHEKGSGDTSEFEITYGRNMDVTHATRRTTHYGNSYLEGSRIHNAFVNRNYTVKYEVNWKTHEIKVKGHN

Protein A = target: T3, Protein A (Staphylococcus aureus, UniProt P38507 37-477); experiment: western blot of S. aureus lysates
T3 construct: also called S. aureus Protein A; SpA

human FcγRI = human FcγRI (human, UniProt P12314 16-288); experiment: AlphaScreen competition against biotinylated IgG1
human FcγRI, sequence (P12314 16-288 limits assumed): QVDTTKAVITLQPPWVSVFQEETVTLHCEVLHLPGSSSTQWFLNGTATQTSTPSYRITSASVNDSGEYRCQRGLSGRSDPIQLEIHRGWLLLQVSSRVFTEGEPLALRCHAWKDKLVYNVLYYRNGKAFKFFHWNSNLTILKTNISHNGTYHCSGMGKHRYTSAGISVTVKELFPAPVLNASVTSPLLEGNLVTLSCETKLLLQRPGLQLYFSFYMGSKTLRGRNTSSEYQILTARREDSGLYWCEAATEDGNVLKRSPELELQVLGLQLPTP

human FcγRIIIa (V158) = human FcγRIIIa (V158) (human, UniProt P08637 17-208); experiment: AlphaScreen competition against biotinylated IgG1
human FcγRIIIa (V158), sequence (P08637 17-208 F176V limits assumed): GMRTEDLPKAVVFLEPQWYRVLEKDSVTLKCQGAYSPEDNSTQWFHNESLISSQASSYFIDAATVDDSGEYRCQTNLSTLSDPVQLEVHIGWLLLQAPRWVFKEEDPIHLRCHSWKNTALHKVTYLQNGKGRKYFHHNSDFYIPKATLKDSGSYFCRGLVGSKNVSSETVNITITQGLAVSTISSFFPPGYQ

[1] = target: T4, SdgB-glycosylated recombinant SdrC4 protein (S. aureus, UniProt O86487 51-910); experiment: ELISA on coated SdgB-glycosylated SdrC4
T4 construct: also called SdgB-glycosylated SdrC4 protein
T4 sequence (O86487 51-910, tags left off): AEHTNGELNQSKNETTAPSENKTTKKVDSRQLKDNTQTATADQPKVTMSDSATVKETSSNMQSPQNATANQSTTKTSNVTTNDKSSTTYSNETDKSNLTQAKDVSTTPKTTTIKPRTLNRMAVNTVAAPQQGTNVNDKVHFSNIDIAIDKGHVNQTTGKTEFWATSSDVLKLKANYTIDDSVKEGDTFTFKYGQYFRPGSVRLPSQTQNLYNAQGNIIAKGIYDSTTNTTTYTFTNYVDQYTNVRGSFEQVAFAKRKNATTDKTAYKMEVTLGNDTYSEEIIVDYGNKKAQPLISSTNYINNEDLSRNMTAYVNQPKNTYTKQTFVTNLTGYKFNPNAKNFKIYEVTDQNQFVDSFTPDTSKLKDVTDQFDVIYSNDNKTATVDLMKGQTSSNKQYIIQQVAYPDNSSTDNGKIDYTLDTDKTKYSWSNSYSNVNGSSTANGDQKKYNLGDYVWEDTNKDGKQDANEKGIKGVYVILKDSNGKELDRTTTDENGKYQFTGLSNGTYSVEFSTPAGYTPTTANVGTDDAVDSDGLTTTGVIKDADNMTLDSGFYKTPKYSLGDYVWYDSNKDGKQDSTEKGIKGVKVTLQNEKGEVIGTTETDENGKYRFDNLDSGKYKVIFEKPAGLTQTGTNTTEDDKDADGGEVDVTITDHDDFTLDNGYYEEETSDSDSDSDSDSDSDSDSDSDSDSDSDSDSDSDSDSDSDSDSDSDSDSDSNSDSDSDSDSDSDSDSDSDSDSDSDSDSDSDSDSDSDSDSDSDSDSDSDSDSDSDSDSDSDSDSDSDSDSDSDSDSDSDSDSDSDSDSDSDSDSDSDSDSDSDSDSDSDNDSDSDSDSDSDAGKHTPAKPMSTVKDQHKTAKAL

B1: Luk357 (designed binder)
chain: LPAPKNLVVSRVTEDSARLSWTAPDAAFDSFTIHYFESLLTGEAISLVVPGSERSYDLTGLKPGTEYLVPIYGVKGGFISQPLIAIFTT
binding result (HlgC): binds

B2: Luk188 (designed binder)
chain: LPAPKNLVVSRVTEDSARLSWTAPDAAFDSFHIHYWEFNPAGEAIVLTVPGSERSYDLTGLKPGTEYFVGIHGVKGGGISWPLSAIFTT
binding result (HlgC): binds

B3: Luk540 (designed binder)
chain: LPAPKNLVVSRVTEDSARLSWTAPDAAFDSFHIEYPEDTEQGEAIVLTVPGSERSYDLTGLKPGTEYNVHITGVKGGSKSAPLSAIFTT
binding result (LukS-PV): binds

B4: Luk647 (designed binder)
chain: LPAPKNLVVSRVTEDSARLSWTAPDAAFDSFSIYYGEWDPTGEAIVLTVPGSERSYDLTGLKPGTEYWVLIVGVKGGSTSAPLSAIFTT
binding result (LukS-PV): binds

B5: mAb 5133 A6 (Construct 3, CR5133 A6) (antibody)
heavy: not shown
light: EIVLTQSPATLSLSPGERATLSCRASQSVSGYLGWYQQKPGQAPRLLIYGASSRATGIPDRFSGSGSGTDFTLTISRLEPEDFAVYYCQQYGSSPLTFGGGTKLEIKRTVAAPSVFIFPPSDEQLKSGTASVVCLLNNFYPREAKVQWKVDNALQSGNSQESVTEQDSKDSTYSLSSTLTLSKADYEKHKVYACEVTHQGLSSPVTKSFNRGEC
binding result (Protein A): no binding (tested: 2 µg/mL) | binding result (human FcγRI): binds | binding result (human FcγRIIIa (V158)): binds

B6: mAb 5133 PRASA A6 (Construct 4, CR5133 PRASA A6) (antibody)
heavy: EVQLVETGGGLVKPGGSLRLSCSASRFSFRDYYMTWIRQAPGKGPEWVSHISGSGSTIYYADSVRGRFTISRDNAKSSLYLQMDSLQADDTAVYYCARGGRATSYYWVHWGPGTLVTVSSASTKGPSVFPLAPSSKSTSGGTAALGCLVKDYFPEPVTVSWNSGALTSGVHTFPAVLQSSGLYSLSSVVTVPSSSLGTQTYICNVNHKPSNTKVDKKVEPKSCDKTHTCPPCPAPPVAGPDVFLFPPKPKDTLMISRTPEVTCVVVDVSHEDPEVKFNWYVDGVEVHNAKTKPREEQYNSTYRVVSVLTVLHQDWLNGKEYKCKVSNAALPAPIAKTISKAKGQPREPQVYTLPPSRDELTKNQVSLTCLVKGFYPSDIAVEWESNGQPENNYKTTPPVLDSDGSFFLYSKLTVDKSRWQQGNVFSCSVMHEALHNRFTQKSLSLSPGK
light: EIVLTQSPATLSLSPGERATLSCRASQSVSGYLGWYQQKPGQAPRLLIYGASSRATGIPDRFSGSGSGTDFTLTISRLEPEDFAVYYCQQYGSSPLTFGGGTKLEIKRTVAAPSVFIFPPSDEQLKSGTASVVCLLNNFYPREAKVQWKVDNALQSGNSQESVTEQDSKDSTYSLSSTLTLSKADYEKHKVYACEVTHQGLSSPVTKSFNRGEC
notes: also called PRASA A6 parental mAb
binding result (Protein A): no binding (tested: 2 µg/mL) | binding result (human FcγRI): no binding | binding result (human FcγRIIIa (V158)): binds

B7: pagibaximab (antibody, V domains shown)
VH: EVMLVESGGGLVQPKGSLKLSCAASGFTFNNYAMNWVRQAPGKGLEWVARIRSKSNNYATFYADSVKDRFTISRDDSQSMLYLQMNNLKTEDTAMYYCVRRGASGIDYAMDYWGQGTSLTVSS
VL: DIVLSQSPAILSASPGEKVTMTCRASSSVNYMHWYQQKPGSSPKPWISATSNLASGVPARFSGSGSGTSYSLTISRVEAEDAATYYCQQWSSNPPTFGGGTMLEIKR
notes: also called anti-LTA mAb
binding result [1]: no binding (tested: starting at 10 µg/mL)

Source: US20150210756A1 (NEW YORK UNIVERSITY, published 2015)
